# Measured values published in PMC8878330 (Molecules, 2022).
# Assays:
# [1] = test system: CO/N=C(\C(=O)N[C@@H]1C(=O)N2C(C(=O)O)=C(COC(C)=O)CS[C@H]12)c1csc(N)n1; assay: steady-state hydrolysis kinetics with purified NDM-1 (Km); assay type: biochemical, Klebsiella pneumoniae; details: Zn2+ (two Zn ions)
# [2] = test system: C[C@@H](O)[C@H]1C(=O)N2C(C(=O)O)=C(SCCN=CN)C[C@H]12; assay: as above; assay type: biochemical, Klebsiella pneumoniae; details: Zn2+ (two Zn ions)
# [3] = test system: C[C@@H](O)[C@H]1C(=O)N2C(C(=O)O)=C(S[C@@H]3CN[C@H](C(=O)N(C)C)C3)[C@H](C)[C@H]12; assay: as above; assay type: biochemical, Klebsiella pneumoniae; details: Zn2+ (two Zn ions)
# [4] = test system: CC1(C)S[C@@H]2[C@H](NC(=O)[C@H](N)c3ccccc3)C(=O)N2[C@H]1C(=O)O; assay: as above; assay type: biochemical, Klebsiella pneumoniae; details: Zn2+ (two Zn ions)
# [5] = molecular target: T1, New Delhi metallo-β-lactamase-1 (NDM-1) (Klebsiella pneumoniae, UniProt C7C422); assay: as above; assay type: biochemical
# T1 construct: gene blaNDM-1
# [6] = molecular target: T1, New Delhi metallo-β-lactamase-1 (NDM-1); assay: biochemical
# T1 sequence (C7C422 29-270 limits assumed): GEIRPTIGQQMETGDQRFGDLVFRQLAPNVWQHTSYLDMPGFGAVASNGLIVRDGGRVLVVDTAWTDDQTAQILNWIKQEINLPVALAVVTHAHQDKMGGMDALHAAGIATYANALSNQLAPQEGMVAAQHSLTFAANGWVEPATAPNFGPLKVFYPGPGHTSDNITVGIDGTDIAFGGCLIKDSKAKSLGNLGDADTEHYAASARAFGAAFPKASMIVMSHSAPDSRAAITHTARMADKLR
molecule,measurement,setting,value
New Delhi metallo-β-lactamase-1 (NDM-1) (Klebsiella pneumoniae),Km,[1],54.8 ± 3.7 µM
same,Vmax,[1],45.1 µM/min
same,kcat,[1],375 ± 17.5 s⁻¹
same,kcat/Km,[1],6.85e+06 ± 560000 M⁻¹ s⁻¹
same,Km,[2],75.9 ± 2.9 µM
same,Vmax,[2],91 µM/min
same,kcat,[2],758 ± 18.6 s⁻¹
same,kcat/Km,[2],9.99e+06 ± 450000 M⁻¹ s⁻¹
same,Km,[3],52.8 ± 3.4 µM
same,Vmax,[3],38.6 µM/min
same,kcat,[3],322 ± 11.7 s⁻¹
same,kcat/Km,[3],6.1e+06 ± 450000 M⁻¹ s⁻¹
same,Km,[4],96.5 ± 3.1 µM
same,Vmax,[4],44.9 µM/min
same,kcat,[4],375 ± 14.3 s⁻¹
same,kcat/Km,[4],3.88e+06 ± 190000 M⁻¹ s⁻¹
O=C(Cc1cccs1)N[C@@H]1C(=O)N2C(C(=O)O)=C(/C=C/c3ccc([N+](=O)[O-])cc3[N+](=O)[O-])CS[C@H]12 [nitrocefin],Km,[5],23.2 ± 1.7 µM
O=P(O)(O)C(O)(Cc1cccnc1)P(=O)(O)O [risedronate],IC50,[6],24.6 µM
